Assay results: US7192728B2, “Screening assays for agents that alter inhibitor of apoptosis (IAP) protein regulation of caspase activity” (The Burnham Institute, priority 1997, dated 2007)

Columns and labels:
Assay type in all cases: biochemical
[1] = biological target: T1, caspase-3 (Homo sapiens, UniProt P42574); test: Inhibition of purified recombinant caspase-3, DEVD substrate hydrolysis and progress curves
T1 construct: to produce the 17–20 kDa mature, fully processed large subunit of the active caspase-3 enzyme; a smaller, fully processed, subunit of about 11 kDa; His6; made in house; host or cells: E. coli BL21(DE3)pLysS
T1 sequence (P42574 29-175 limits assumed): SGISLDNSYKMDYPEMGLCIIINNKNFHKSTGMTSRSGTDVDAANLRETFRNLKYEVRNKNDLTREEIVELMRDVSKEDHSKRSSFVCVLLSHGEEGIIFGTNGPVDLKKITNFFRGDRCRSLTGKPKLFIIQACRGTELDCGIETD
T1 sequence (P42574 176-277 limits assumed): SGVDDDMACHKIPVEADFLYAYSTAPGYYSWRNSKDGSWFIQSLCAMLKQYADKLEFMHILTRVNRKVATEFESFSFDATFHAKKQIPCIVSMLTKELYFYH
Experimental: Purified recombinant caspase-1, caspase-3, caspase-6, caspase-7 or caspase-8 were incubated with DEVD-pNA, either alone or with a 10-fold to 50-fold molar excess of GST-XIAP ([…]) and substrate hydrolysis was measured. Purified active caspase concentrations ranged from 0.1 nM to 10 nM. XIAP concentration ranged from 0.1 nM to 500 nM. Assays were performed in caspase buffer (50 mM Tris, pH 7.4, 100 mM NaCl, 10% sucrose, 5–10 mM DTT, 1 mM EDTA and 0.1% CHAPS).
Equilibria were determined from progress curves when substrate hydrolysis reached a steady-state; slopes were calculated by curve fit analysis using the cricket graph program. Experiments were performed using purified recombinant caspase-3, caspase-6, or caspase-7. DEVD-AFC hydrolysis was measured using 0.1 nM caspase and a range of concentrations (0.2 to 12 μM) of recombinant XIAP (rXIAP). […] Average ratio velocities (vi/vo, where “vi” indicates presence of GST-XIAP and “vo” indicates absence of GST-XIAP) were determined.
Caspase activity was determined essentially as described in Example II, using the benzylyoxycarbonyl-DEVD-AFC (SEQ ID NO: 2) substrate and was assayed at 37° C. using the Perkin-Elmer LS50B fluorometric plate reader in the kinetic mode with excitation and emission wavelengths of 400 nm and 505 nm, respectively. […] Reactions were performed in caspase buffer (50 mM Hepes, 100 mM NaCl, 1 mM EDTA, 0.1% CHAPS, 10% sucrose, 5 mM DTT). The inhibition constant, Ki, was calculated as described (Zhou et al., supra, 1997). Immunoblot analysis was performed as described in Example I.B.3.

[2] = biological target: T2, caspase-7 (Homo sapiens, UniProt P55210); test: Inhibition of purified recombinant caspase-7, DEVD substrate hydrolysis and progress curves
T2 construct: Purified active caspase concentrations ranged from 0.1 nM to 10 nM; His6; made in house; host or cells: E. coli BL21(DE3)pLysS
T2 sequence (P55210 24-198 limits assumed): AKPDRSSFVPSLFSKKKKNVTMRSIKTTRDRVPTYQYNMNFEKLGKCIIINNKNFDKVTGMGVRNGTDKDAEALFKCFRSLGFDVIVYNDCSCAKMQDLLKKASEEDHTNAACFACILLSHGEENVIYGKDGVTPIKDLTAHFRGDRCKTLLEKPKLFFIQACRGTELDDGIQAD
T2 sequence (P55210 207-303 limits assumed): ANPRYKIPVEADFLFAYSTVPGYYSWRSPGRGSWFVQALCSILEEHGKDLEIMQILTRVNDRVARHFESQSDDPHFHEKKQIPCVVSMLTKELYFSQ

[3] = tested on: DEVD-pNA hydrolysis activity in Jurkat T cell cytosolic extracts; test: Cytochrome c/dATP-induced caspase activation (DEVD-pNA hydrolysis) in Jurkat T cell cytosolic extracts
Experimental: Cells were washed with ice cold buffer A (20 mM Hepes (pH 7.5), 10 mM KCl, 1.5 mM MgCl2, 1 mM EDTA, 1 mM DTT and 0.1 mM PMSF) and suspended in 1 vol buffer A, then incubated on ice for 20 min. 293 cells were disrupted by passage 15× through a 26 gauge needle and Jurkat T cells were disrupted by dounce homogenization in 2 ml using 15 strokes with a pestle B. Cell extracts (10–15 mg total protein/ml) were clarified by centrifugation at 16,000×g for 30 min, then the NaCl concentration was increased by 50 mM. Cytosolic fractions were used immediately or stored frozen at −80° C.
Caspase activity was assayed by release of either 7-amino-4-trifluoromethyl-coumarin (AFC) or p-nitroanilide (pNA) from benzylyoxycarbonyl-DEVD (SEQ ID NO: 2) or benzylyoxycarbonyl-YVAD (SEQ ID NO: 3) synthetic peptides using a Molecular Devices Spectromax 340 for AFC labeled peptides or Perkin/Elmer LS50B for pNA labeled peptides (see Example II; see, also, Zhou et al., supra, 1997). Cytosolic extracts from 293 cells or Jurkat T cells were used directly (negative control) or were treated with 1 μM cytochrome c and 1 mM dATP or with cytochrome c, dATP and 0.2 μM GST-XIAP. Additional control reactions were performed by substituting 2 μM GST-Bcl-2, GST-Bax, GST-NM23 or GST-CD40 cytosolic domain, or 5 μM His6-S5a protein for GST-XIAP. DEVD-pNA hydrolysis was measured at various times and multiple experiments were performed using several different GST-XIAP preparations.

[4] = DEVD-AFC hydrolysis with/without GST-XIAP

- inhibition of processing of DEVD-pNA by caspase-3 ([1]; 10-fold molar excess): greater than 95%
- average ratio velocity (vi/vo), caspase-3 [1, 4]: less than 0.2
- Ki ([1]; progress curve analysis, DEVD-AFC 0.1 mM, 0.1 nM caspase, read-out: inhibition constant (Ki) for caspase-3): ~0.7 nM
- inhibition of processing of DEVD-pNA by caspase-7 ([2]; 10-fold molar excess): greater than 95%
- average ratio velocity (vi/vo), caspase-7 [2, 4]: less than 0.2
- Ki ([2]; progress curve analysis, DEVD-AFC 0.1 mM, 0.1 nM caspase, read-out: inhibition constant (Ki) for caspase-7): ~0.2 nM
Substance: XIAP: X chromosome linked inhibitor of apoptosis protein (Genbank U32974), used mostly as recombinant GST fusion or expressed from plasmid
- DEVD-pNA hydrolysis, ΔA405 after 15 min ([3]; untreated ≈0.02): ≈ 0.025
- DEVD-pNA hydrolysis, ΔA405 after 20 min ([3]; untreated ≈0.025): ≈ 0.03
